# Test results published in IntAct's records for PubMed 16443932.
# Target: cdc42_human CDC42 (UniProt P60953)
# Chain of UniProt P60953 (P60953 whole entry, looked up): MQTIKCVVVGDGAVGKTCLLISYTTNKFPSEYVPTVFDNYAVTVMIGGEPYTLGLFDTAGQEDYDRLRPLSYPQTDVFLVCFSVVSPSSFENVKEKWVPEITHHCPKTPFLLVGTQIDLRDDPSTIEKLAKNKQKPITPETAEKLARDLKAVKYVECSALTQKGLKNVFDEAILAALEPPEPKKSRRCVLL
substance,measurement,value
"Phospholipid-transporting ATPase ABCA1 (Homo sapiens), O95477 K939M",effect of a mutation on the interaction,disrupting interaction strength
